Reference: patent US20240400689A1 (ANTENGENE BIOLOGICS, published 2024)

T1: HUMAN B7H3 (Biacore analyte) (human, UniProt Q5ZPR3 29-461, limits assumed)
T1 construct: also called hB7H3
T1 sequence (looked up): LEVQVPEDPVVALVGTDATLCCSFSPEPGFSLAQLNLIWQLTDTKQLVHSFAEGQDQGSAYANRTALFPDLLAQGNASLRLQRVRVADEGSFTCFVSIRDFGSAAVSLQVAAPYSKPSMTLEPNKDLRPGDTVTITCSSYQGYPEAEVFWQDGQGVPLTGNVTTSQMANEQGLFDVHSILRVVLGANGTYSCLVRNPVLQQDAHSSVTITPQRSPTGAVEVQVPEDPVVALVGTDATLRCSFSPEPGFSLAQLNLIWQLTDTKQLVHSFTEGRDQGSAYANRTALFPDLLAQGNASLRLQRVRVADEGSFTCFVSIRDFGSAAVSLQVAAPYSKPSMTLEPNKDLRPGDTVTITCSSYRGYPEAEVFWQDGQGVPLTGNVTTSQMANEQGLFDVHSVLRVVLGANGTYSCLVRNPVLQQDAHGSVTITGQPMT

T2: human CD276 protein (human, UniProt Q5ZPR3 29-534)
T2 construct: whole, on cells; for SKOV3 and the other cancer lines the protein is the cells' own; also called B7-H3; B7H3
T2 sequence (looked up): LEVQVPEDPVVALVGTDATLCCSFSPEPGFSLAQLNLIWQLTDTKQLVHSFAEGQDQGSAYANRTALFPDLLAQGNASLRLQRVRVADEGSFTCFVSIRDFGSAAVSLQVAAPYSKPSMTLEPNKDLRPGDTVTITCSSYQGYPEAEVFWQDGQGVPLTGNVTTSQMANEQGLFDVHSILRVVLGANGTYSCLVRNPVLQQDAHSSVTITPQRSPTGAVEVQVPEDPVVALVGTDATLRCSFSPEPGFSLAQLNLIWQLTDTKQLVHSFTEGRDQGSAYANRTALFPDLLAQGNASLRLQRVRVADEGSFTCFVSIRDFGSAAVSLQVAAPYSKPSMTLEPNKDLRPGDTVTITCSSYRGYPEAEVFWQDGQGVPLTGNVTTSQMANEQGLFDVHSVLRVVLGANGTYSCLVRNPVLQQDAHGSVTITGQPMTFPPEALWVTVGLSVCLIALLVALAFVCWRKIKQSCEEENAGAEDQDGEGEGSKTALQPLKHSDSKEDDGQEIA


Tests used:
[1] = target: T1, HUMAN B7H3 (Biacore analyte); experiment: SPR, Biacore 8K, antibody captured, B7H3 as analyte, 1:1 binding
human CD276 protein [2] = target: T2, human CD276 protein; experiment: FACS on SKOV3 cells
Summary of the method: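 Human IgG1 chimeric antibodies were tested for binding to trypsin-detached SKOV3 ovarian cancer cells by flow cytometry, with cells washed in FACS buffer and kept in the dark before acquisition. Titration read-out was MFI plotted against antibody concentration (nM).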

human CD276 protein [3] = target: T2, human CD276 protein; experiment: cell-based or functional assay
human CD276 protein [4] = target: T2, human CD276 protein; experiment: cell-based or functional assay; remark: listed apart in the source
human CD276 protein [5] = target: T2, human CD276 protein; experiment: cell-based or functional assay; remark: listed apart in the source

Binder | Kd [1] [nM] | koff [1] [s⁻¹] | kon [1] [M⁻¹ s⁻¹] | EC50 (human CD276 protein [2]) [µg/mL] | MFI (Max) (human CD276 protein [2]) | EC50 of antibody induced CDC effect (human CD276 protein [4]) [nM] | EC50 of antibody induced ADCC effect on SKOV3 (human CD276 protein [5]) [µg/mL] | IC50 of indirect ADC cytotoxicity on SKOV3 (human CD276 protein [3]) [nM] | Top cytotoxicity (%), CDC (human CD276 protein [4]) [%]
7-E1-F8-F6 (human IgG1 chimeric antibody) (antibody, V domains shown, human IgG1 chimeric antibody of the mouse clone) VH: QVQLQQSGPELVKPGASVQMSCKASGYTFTDYVISWVNQRTGQGLEWIGEIYPRSGNTYYNEKFKGKATLTADKSSNTAYMQLSSLTSEDSAVYFCARFDIAYSFDYWGQGTTLTVSS VL: DVVMTQTPLSLPVSLGDQASISCRSTQSLVHSNGVTYLHWYLQKPGQSPKLLIYKVSNRFSGVPDRFSGSGSGTDFTLKISRVEAEDLGVYFCSQGTHVPWTFGGGTKLEIK | 0.855 | 0.000222 | 260000 | 0.982 | 3380 | 1.69 | 0.0177 | 0.028 | 91.9
20-A2-D10-G8 (human IgG1 chimeric antibody) (antibody, V domains shown, human IgG1 chimeric antibody of the mouse clone) VH: QVQLQQSGPELVRPGVSVKISCKGSGYTFTDYTMHWVKESHAQSLEWIGVISTYYGNTNYNQNFKGKATLTVDKSSSTAYMELAGLTSEDSAIYYCARASYGSGYGPYYWYFDVWGAGTTVTVSS VL: DIQMTQSPASLFASVGETVTITCRASEKIYSYLAWYFQKQGKSPQFLVYNANALAEGVPSRFSGSGSGTQFSLKIKSLQPEDFGTYYCQHHYGSPVTFGAGSKLELK | 0.555 | 0.000282 | 508000 | 0.791 | 3110 | 1.92 | 0.263 | 0.007 | 85.1
10-B9-D10-A12 (human IgG1 chimeric antibody) (antibody, V domains shown, human IgG1 chimeric antibody of the mouse clone) VH: EVQLQESGPELVRPGVSVKISCKGSGYTFTDYTMHWVKLSHAKSLEWIGVISTYYGNTNYNQKFKGKATLTVDKSSSTAYMELARLTSEDSAIYYCARASYGSGYGPYYWYFDVWGAGTTVTVSS VL: DIQMTQSPASLFASVGETVTITCRASEKIYSYLAWYFQKQGKSPQFLVYNANALAEGVPSRFSGSGSGTQFSLKINSLQPEDFGTYYCQHHYGTPVTFGAGSKLELK | 0.752 | 0.000282 | 375000 | 2.08 | 3880 | – | 0.259 | 0.021 | –
25-D3-G4-C6 (human IgG1 chimeric antibody) (antibody, V domains shown, human IgG1 chimeric antibody of the mouse clone) VH: EIQLQQTGPELVKPGASVKISCKASGYSFTDYIILWVKQSHGMSLEWIGNINPYYNSTYYNLKFKGKATLTVDKSSSTAYMQLDSLTSEDSAVYYCARDSFDWYFGVWGAGTTVTVSS VL: DVVMTQTPLSLPVSLGDQASISCRSSQSLVHSNGNTYLHWYLQKPGQSPKLLIYKVSNRFSGVPDRFSGSGSGTDFTLKISRVETEDLGIYFCSQSTHVPPLTFGAGTKLELK | 2.31 | 0.00025 | 108000 | 1.27 | 3450 | 2.41 | 0.0372 | 0.023 | 89.7
25-C8-D7-C5 (human IgG1 chimeric antibody) (antibody, V domains shown, human IgG1 chimeric antibody of the mouse clone) VH: EVQLQESGGGLVKPGGSLKFSCAASGFTFSTYAMSWVRQTPEKRLEWVATISGGGIDTYYPDSVKGRFTISRDNAKNTLYLQMNSLRSEDTAMYYCARQGSKGWGAMDYWGQGTSVTVSS VL: QIVLTQSPAIMSASPGEKVTMTCRASSSVSFMHWYQQKSGTSPKRWIYETSKLASGVPDRFSGSGSGTSYSLTISSMEAEDAATYYCQQWSSNPLTFGAGTKLELK | 1.2 | 0.000243 | 203000 | 2.03 | 3480 | 2.42 | 0.123 | 0.018 | 91.4

Continued by falling Kd [1], values first:

Kd [1] [nM] | koff [1] [s⁻¹] | kon [1] [M⁻¹ s⁻¹] | EC50 (human CD276 protein [2]) [µg/mL] | MFI (Max) (human CD276 protein [2]) | EC50 of antibody induced CDC effect (human CD276 protein [4]) [nM] | EC50 of antibody induced ADCC effect on SKOV3 (human CD276 protein [5]) [µg/mL] | Binder | IC50 of indirect ADC cytotoxicity on SKOV3 (human CD276 protein [3]) [nM] | Top cytotoxicity (%), CDC (human CD276 protein [4]) [%]
0.749 | 0.000348 | 464000 | 0.402 | 2830 | 1.57 | 0.0668 | 6-D8-E7-A11 (human IgG1 chimeric antibody) (antibody, V domains shown, human IgG1 chimeric antibody of the mouse clone) VH: QVHLQQPGAELVKPGASVKLSCKASGYTFTNYWMHWVKRRPGQGLEWIGMIHPNSGTTSFNEKFKSKATLTVDKSSSTAYMQLSSLTSEDSAVYYCAGYYGSSFSWFTYWGQGTLVTVSA VL: QAVVTQESALTTSPGGTVILTCRSSTGAVTTSNFANWVQEKPDHLFTGLIGGTSNRAPGVPVRFSGSLIGDKAALTITGAQTEDDAMYFCALWYSTHYVFGGGTKVTVL | 0.008 | 92.5
0.644 | 0.000416 | 645000 | 0.941 | 2310 | – | 0.069 | 20-C5-D7-D3 (human IgG1 chimeric antibody) (antibody, V domains shown, human IgG1 chimeric antibody of the mouse clone) VH: EVQLVESGGDLVKPGGSLKLSCAASGFTFRSYGMSWVRQTPDKRLEWVATISGGGNYTYYPDSVKGRFTISRDNAKNTLYLQMSSLKSEDTAMYYCARHEGLPLDYWGQGTTLTVSS VL: DIQMTQSPASLSASVGETVTITCRASENIYSYLAWYQQKQGKSPQLLVYNAKTLAEGVPSRFSGSGSGTQFSLKINSLQPEDFGNFYCQHHYGTPTWTFGGGTKLEIK | 0.007 | –
0.489 | 0.000239 | 489000 | 0.286 | 4610 | 2.44 | 0.503 | 18-F9-D8-G7 (human IgG1 chimeric antibody) (antibody, V domains shown, human IgG1 chimeric antibody of the mouse clone) VH: EVQLQQSGPELVRPGVSVKISCKGSGYTFTDYAMHWVKQSHAQSLEWIGIINTYSGDTNYNQKFKGKATMTVDKSSSTAYMGLARLTSEDSAIFYCARGGGNYPYWYFDVWGAGTTVTVSS VL: ENVLTQSPAIMSASPGEKVTMTCRASSSVSSSYLHWYQQKSGDSPKLWIYSTSNLASGVPARFSGSGSGTSYSLTISSVEAEDAATYYCQQFSVYPLTFGAGTKLEIK | 0.014 | 70.3
0.459 | 0.000408 | 889000 | 0.385 | 2540 | 1.67 | – | MGC018 (antibody, V domains shown) VH: EVQLVESGGGLVKPGGSLRLSCAASGFTFSSYGMSWVRQAPGKGLEWVATINSGGSNTYYPDSLKGRFTISRDNAKNSLYLQMNSLRAEDTAVYYCARHDGGAMDYWGQGTTVTVSS VL: DIQMTQSPSSLSASVGDRVTITCRASESIYSYLAWYQQKPGKAPKLLVYNTKTLPEGVPSRFSGSGSGTDFTLTISSLQPEDFATYYCQHHYGTPPWTFGQGTRLEIKR | 0.013 | 93.3
0.444 | 0.00044 | 990000 | 0.643 | 2880 | – | 0.111 | 8-C3-E3-F3 (human IgG1 chimeric antibody) (antibody, V domains shown, human IgG1 chimeric antibody of the mouse clone) VH: EVQLVESGGGLVQPGGSLKLSCAASGFTFSNYGLSWVRLTPDKRLEVVATIGSYGGNTYYPDSVKGRFTISRDNAKNTLYLQMSSLKSEDTAIYYCARDIYYGNSEAWFAYWGQGTLVTVSA VL: DIVMTQAAFSNPVTLGTSASISCRSSKSLLHSNGITYLYWYLQKPGQSPQLLIYQMSNLASGVPDRFSSSGSETDFTLRISRVEAEDVGVYYCAQNLELPWTFGGGTKLEIK | 0.012 | –
0.399 | 0.000196 | 492000 | 0.293 | 2140 | 7.54 | 0.697 | 15-C8-B5-G7 (human IgG1 chimeric antibody) (antibody, V domains shown, human IgG1 chimeric antibody of the mouse clone) VH: QVQLQQPGAELVKPGASVKLSCKASDYTFTSHWMHWVKQRPGQGLEWIGMIHPNSGTTHYNENFKNKATLTVDNSSSTAYMQLSSLTSEDSAVYYCAWGSSNSYFYAMAYWGQGTSVTVSS VL: QAVVTQESALTTSPGETVTLTCRSSTGAVTTSNYANWVQEKPAHLFTGLIGGTNNRAPGVPARFSGSLIGDKAALTITGAQTEDEAIYFCALWFSNHLVFGGGTKLTVL | 0.008 | 86.1
